Results as given in the supplement of paper PMC12764529.
± gives the half width of the 95% confidence interval.

Tests used:
[1] = folding stability dG unfold (combined trypsin and chymotrypsin); higher = more stable
In short: (§1)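 Designed mini-proteins (under 80 residues, no cysteine) in a PA-tagged cDNA display construct were digested with trypsin and chymotrypsin. Each protease was used at 11 concentrations (threefold dilutions) plus a no-protease condition, followed by sequencing. K50 was inferred by Bayesian fitting of sequencing counts, and unfolding free energy was derived against a sequence-predicted unfolded-state K50 and a shared folded-state K50, per protease or combined. Only designs with AlphaFold2 dimer inter-PAE above 15 were kept.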

[2] = folding stability dG unfold from trypsin proteolysis; higher = more stable
In short: as §1

[3] = folding stability dG unfold from chymotrypsin proteolysis; higher = more stable
In short: as §1

Sequence	folding stability dG unfold [1]	folding stability dG unfold [2]	folding stability dG unfold [3]
SAGMETIEVPLPVEEIKEALDAGLSPEEIARLLAEETGEEVEIEVGGRKITITRNEDGELIVRIEVKPDSAG [r5_343_TrROS_Hall]	2.36 ± 0.2 kcal/mol	2.51 ± 0.085 kcal/mol	2.22 ± 0.091 kcal/mol
SAGMETVTVEVDGATITFVKNEDGTVTAIVTYPNGEVEIYNADGELIRRERLPNGLVVFEFTKEELEKLSAG [r5_457_TrROS_Hall]	1.93 ± 0.14 kcal/mol	1.19 ± 0.057 kcal/mol	2.09 ± 0.068 kcal/mol
SAGMETVVTYDPSNGTVTTTTTVFAPDGTPLGSLSTTTPIGGGTITYTTITIDPETGTVTTTTTAYPGASAG [r5_34_JUSTAS]	4.25 ± 0.11 kcal/mol	2.77 ± 0.093 kcal/mol	4.49 ± 0.086 kcal/mol
SAGMEVEILGAEVDPETGVVKVVAVGRDPVTGVLVVDEITIKGDTVEIRREVYFPNTGKKAETTATIPLSAG [r5_150_TrMRF]	1.55 ± 0.12 kcal/mol	1.66 ± 0.13 kcal/mol	1.43 ± 0.071 kcal/mol
SAGMGIVEALRRELEAAGLDVRVSATVEPLPDLGYVLITVHVEVRNENGEWVPLGPLTILLPVEEAERLSAG [r5_413_TrMRF]	2.55 ± 0.13 kcal/mol	2.9 ± 0.12 kcal/mol	2.43 ± 0.07 kcal/mol
SAGMIATITITRPGTGSITLTVPVPVPSEEEARAYAEAVREALRAADPGPLEVSVEFERVPPVPPERLGSAG [r5_87_JUSTAS]	1.75 ± 0.1 kcal/mol	1.6 ± 0.038 kcal/mol	1.85 ± 0.036 kcal/mol
SAGMIEINNVTPNYVMIKIWNPDNGKKWEIPIQYERDNGKPYSKDKALEEIKDIAKEFYPDFDIEVEPVSAG [r5_293_TrROS]	0.41 ± 0.25 kcal/mol	0.0269 ± 0.15 kcal/mol	0.727 ± 0.14 kcal/mol
SAGMIKIEETDGKLKVTITLKADDPEEITVEMIKEELEKLGLEVAEIKITPEPNEDGQYTVTAEIVVDVSAG [r5_922_TrMRF]	3.08 ± 0.23 kcal/mol	2.99 ± 0.39 kcal/mol	3.06 ± 0.16 kcal/mol
SAGMIKVEVVEKDEKTKEWKVVETKTIPVKPGEKPTVEELAKKLKEKGYEVRIEKTKDGTLKIYVIKKKSAG [r5_269_TrROS_Hall]	3.78 ± 0.16 kcal/mol	3.33 ± 0.2 kcal/mol	4.08 ± 0.061 kcal/mol
SAGMISPEEIAKRLKAGEPVEIYLPDPAEKEALLAELQKLLGLSEEELKEIFAKMKFTEIPATDPRLLASAG [r5_368_JUSTAS]	1.67 ± 0.046 kcal/mol	1.16 ± 0.045 kcal/mol	2.03 ± 0.058 kcal/mol
SAGMISSVSSEPSTNTTTATIPETGKTITYNPETGTLTVTPPTGNPSVIPVETPEEAERAMEEVIAELSSAG [r5_467_JUSTAS]	0.816 ± 0.079 kcal/mol	1.11 ± 0.041 kcal/mol	0.228 ± 0.038 kcal/mol
SAGMITISEEEARELGVPIGASEEEIKEALAARLREEGYKVEFPSVVKEKVDPKTGKVEYKIDINLKPLSAG [r5_23_JUSTAS]	0.807 ± 0.18 kcal/mol	1.3 ± 0.051 kcal/mol	-0.104 ± 0.48 kcal/mol
SAGMKEIKIKDAKIEVKKKKDGKKVKRITLKDGKEIEIKEDGSIIIRNKKTGKYIKLPKNMTIEELLKKSAG [r5_348_TrROS_Hall]	1.48 ± 0.098 kcal/mol	0.925 ± 0.09 kcal/mol	1.74 ± 0.029 kcal/mol
SAGMKEVTVSKDELEEILKKLPPNKTYKVTLYNPNGPTYEFTVTVENDTIKINEGPPNKSENLKVTLVSSAG [r5_85_JUSTAS]	2 ± 0.051 kcal/mol	1.53 ± 0.036 kcal/mol	2.32 ± 0.024 kcal/mol
SAGMKIKIVKIEKEEDGTIRVELEITDPNGNKYRVEAEIDLKDPNKIKIKVINEDTGEEFEIELTIKKPSAG [r5_345_TrROS_Hall]	5.24 ± 0.35 kcal/mol	3.6 ± 0.23 kcal/mol	5.19 ± 0.2 kcal/mol
SAGMKITISYDEAKGIATVTLYEERPVETPNGPVTLRRKVATVTIPYTSLEEAKKQAEEAAKALLEKLSSAG [r5_956_JUSTAS]	5.06 ± 0.084 kcal/mol	5.11 ± 0.14 kcal/mol	5.036 ± 0.033 kcal/mol
SAGMKITYKRPDGTPAEPIPEEEIKKLAEEKAKELYPNKPDATVTVTITIKTNNNEPLIITMTVTIKNESAG [r5_526_JUSTAS]	1 ± 0.38 kcal/mol	0.982 ± 0.054 kcal/mol	1.13 ± 0.18 kcal/mol
SAGMKKVIELTIPVTGPEEVEELVAKLEEEEPAVPVERRPDPRLGAVRVVVEKKFPDSIVYITLTAAASAGG [r19_262_JUSTAS]	0.677 ± 0.065 kcal/mol	0.784 ± 0.042 kcal/mol	0.496 ± 0.071 kcal/mol

Sequence	folding stability dG unfold [1]	folding stability dG unfold [2]	folding stability dG unfold [3]
SAGMKLELLLPAEEAVRLFGPDFDARDLARALASEGYVVESVEAEPFPNPEEGGLYLRVTFDVRPPDASAGG [r19_376_TrMRF]	1.38 ± 0.045 kcal/mol	1.37 ± 0.018 kcal/mol	1.4 ± 0.061 kcal/mol
SAGMKPGEKVKVTLTLTETRVEEVDGEKKVEKRTLTIEVTVEVSEEDREKALEEAEELARKLAEEGLIPSAG [r5_532_TrROS_Hall]	1.31 ± 0.28 kcal/mol	1.21 ± 0.15 kcal/mol	1.24 ± 0.07 kcal/mol
SAGMKPNETLPNAIIRIENSKGKVKEFTLPNVVSIEEIDEKNGIITLTLPNNKKITLKVPKNAKITIEGSAG [r5_762_TrMRF]	3.37 ± 0.049 kcal/mol	3.04 ± 0.11 kcal/mol	3.5 ± 0.049 kcal/mol
SAGMKTKTIEETITFTFPPGNPPDLEEIKEKLKSKGVKVLKVEMFEPPGDYYVVTAKVVKELEPSELLSSAG [r5_167_JUSTAS]	1.84 ± 0.13 kcal/mol	0.934 ± 0.072 kcal/mol	2.27 ± 0.039 kcal/mol
SAGMKVILIIAPEEKIEEIFEEIKKIAEEHGLDLKLDKIEPLPEKGYLVIVTVKNPESDETTVILVLVPSAG [r5_41_TrMRF]	3.55 ± 0.12 kcal/mol	2.96 ± 0.096 kcal/mol	3.75 ± 0.077 kcal/mol
SAGMKVTTFTTPTRTVTVTLTPDGTVTVTVTDPSGNPTVTAPDGTPVASTTAPDGTTTFTLDPALFAAASAG [r5_457_JUSTAS]	0.896 ± 0.073 kcal/mol	0.717 ± 0.047 kcal/mol	0.965 ± 0.1 kcal/mol
SAGMKYTFKILVKADSPEEAIETAKKLVEKWLKENFPELPEGVKIKEIKVEPLPDDYYLVTITVEFDPESAG [r5_320_TrMRF]	5.49 ± 0.1 kcal/mol	4.2 ± 0.19 kcal/mol	5.51 ± 0.091 kcal/mol
SAGMLRELLDNPDVKRLEIVIFIPEEDLSEEDRERARERARELAERLRELLRERGYDVEIEVRIVRLPPSAG [r5_408_TrROS_Hall]	3.39 ± 0.088 kcal/mol	3.5 ± 0.11 kcal/mol	3.22 ± 0.062 kcal/mol
SAGMLRVDIEIPPAFRKMLKNAPPGETVMFELPIKIKIEYYQPDGGKPEPKEHEQPFPVQFMVVLPPDGSAG [r5_946_TrROS]	2.84 ± 0.2 kcal/mol	2.14 ± 0.16 kcal/mol	3.18 ± 0.12 kcal/mol
SAGMLVRVTLKYPDGKTIKIPFPYAKILSEETSNNETTFTIDSPESADKAVEAIKKEYPDIEVKVEPLESAG [r5_453_JUSTAS]	2.23 ± 0.058 kcal/mol	1.67 ± 0.022 kcal/mol	2.46 ± 0.035 kcal/mol
SAGMMKVRIKIEVTRVEYDEETGELKEETRTIEIPIEAESEEEAEELAKKLAEELPEEEVKIVEIEPLSAGG [r19_209_TrROS_Hall]	1.22 ± 0.22 kcal/mol	1.1 ± 0.096 kcal/mol	1.42 ± 0.11 kcal/mol
SAGMNLKIEVSVTPQEFELVEKDEEGNLIKPVKQKATVVTTTTTLPDGTVTTTRSLFLDGELVATSTGSAGG [r19_44_JUSTAS]	0.972 ± 0.098 kcal/mol	0.716 ± 0.015 kcal/mol	1.03 ± 0.044 kcal/mol
SAGMNTITFEYKTKDHYVKIDVQVYPPNEGYIRISIEIYNKDGEPKKEVKITIPAPPGDPAVRDFLDQFSAG [r5_964_TrROS]	2.73 ± 0.35 kcal/mol	2.77 ± 0.32 kcal/mol	2.74 ± 0.047 kcal/mol
SAGMPAETETTVTITTETIDEKGNLSTKTYTATVRTLPDGRVLVYLENELLLIDPATGEVVAREPNYKPSAG [r14_821_JUSTAS]	2.28 ± 0.051 kcal/mol	2.3 ± 0.025 kcal/mol	2.264 ± 0.015 kcal/mol
SAGMPEIVKVKVKIKVNIPVFDKNGKLIGLIPKEYEFEIEAPYEEIKNIIESLPENAEVVEILEIENESAGG [r19_114_TrMRF]	3.29 ± 0.89 kcal/mol	4.27 ± 0.68 kcal/mol	2.29 ± 0.29 kcal/mol
SAGMPEVKLLPKPDGSLVLVVVFEDKAIIIEFPPDGEGKIYIIDLKNNKITEIPFPSEDPLKAIKEALSSAG [r5_674_TrMRF]	3.72 ± 0.27 kcal/mol	2.35 ± 0.086 kcal/mol	3.99 ± 0.21 kcal/mol
SAGMPIRVRLLVERPALDPETGEPVVERREVVLTLHPEEIASGIPVEELAKELEKAFPGAKVTVLEVSSAGG [r19_110_TrMRF]	3.81 ± 0.047 kcal/mol	3.88 ± 0.11 kcal/mol	3.77 ± 0.044 kcal/mol
SAGMPKTTVETEIRFVETEEGIEAVAEVRTETETRVVVIPGHLGPEEAIEVLEKLLEEEGLELSRVEIGSAG [r5_305_TrMRF]	0.542 ± 0.082 kcal/mol	0.646 ± 0.032 kcal/mol	0.353 ± 0.038 kcal/mol
